Measured values reported in patent publication US20180237497A1 (CANCER RESEARCH TECHNOLOGY, published 2018).
Positions count from the first letter of the chain named. Names and notes keep the numbering of the source.

B1: domain 11^AB3 P1597H K1631W (receptor)
chain: MKSNEHDDCQVTNPSTGHLFDLSSLSGRAGFTAAYSKSGVVYMSICGENENCPPGVGACFGQTRISVGKANKRLRYVDQVLQLVYKDGSHCPSKSGLSYKSVISFVCRPEAGPTNRPMLISLDWQTCTLFFSWHTPLACEQATECSV
notes: See m5
B2: domain 11^AB3 P1597K S1602H (receptor)
chain: B1 chain with H90K, S95H, W124K
notes: See m5
B3: domain 11^AB3 Q1569R P1597K (receptor)
chain: B1 chain with Q62R, H90K, W124K
notes: See m5
B4: domain 11^AB3 Q1569R P1597K S1602H (receptor)
chain: B1 chain with Q62R, H90K, S95H, W124K
notes: See m5
B5: domain 11^AB3 Q1569R P1597K S1602H G1603K (receptor)
chain: B1 chain with Q62R, H90K, S95H, G96K, W124K
notes: See m5
B6: domain 11^AB5 P1597A (receptor)
chain: B1 chain with S36A, S38G, G39W, V40G, H90A, W124K
notes: See m5
B7: domain 11^AB5 P1597K (receptor)
chain: B1 chain with S36A, S38G, G39W, V40G, H90K, W124K
notes: See m5
B8: domain 11^AB5 P1597K S1602H (receptor)
chain: B1 chain with S36A, S38G, G39W, V40G, H90K, S95H, W124K
notes: See m5
B9: domain 11^AB5 P1597L (receptor)
chain: B1 chain with S36A, S38G, G39W, V40G, H90L, W124K
notes: See m5
B10: domain 11^AB5 G1603A (receptor)
chain: B1 chain with S36A, S38G, G39W, V40G, H90P, G96A, W124K
notes: See m5
B11: domain 11^AB5 K1601A (receptor)
chain: B1 chain with S36A, S38G, G39W, V40G, H90P, K94A, W124K
notes: See m5
B12: domain 11^AB5 K1631A (receptor)
chain: B1 chain with S36A, S38G, G39W, V40G, H90P, W124A
notes: See m5; HI loop mutant
B13: domain 11^AB5 K1631E (receptor)
chain: B1 chain with S36A, S38G, G39W, V40G, H90P, W124E
notes: See m5; HI loop mutant
B14: domain 11^AB5 K1631R (receptor)
chain: B1 chain with S36A, S38G, G39W, V40G, H90P, W124R
notes: See m5; HI loop mutant
B15: domain 11^AB5 K1631W (receptor)
chain: B1 chain with S36A, S38G, G39W, V40G, H90P
notes: See m5; HI loop mutant
B16: domain 11^AB5 L1604A (receptor)
chain: B1 chain with S36A, S38G, G39W, V40G, H90P, L97A, W124K
notes: See m5
B17: domain 11^AB5 P1599A (receptor)
chain: B1 chain with S36A, S38G, G39W, V40G, H90P, P92A, W124K
notes: See m5; the asterisk is not explained
B18: domain 11^AB5 P1599G (receptor)
chain: B1 chain with S36A, S38G, G39W, V40G, H90P, P92G, W124K
notes: as for B17
B19: domain 11^AB5 P1599V (receptor)
chain: B1 chain with S36A, S38G, G39W, V40G, H90P, P92V, W124K
notes: as for B17
B20: domain 11^AB5 Q1632A (receptor)
chain: B1 chain with S36A, S38G, G39W, V40G, H90P, W124K, Q125A
notes: See m5; HI loop mutant
B21: domain 11^AB5 Q1632E (receptor)
chain: B1 chain with S36A, S38G, G39W, V40G, H90P, W124K, Q125E
notes: See m5; HI loop mutant
B22: domain 11^AB5 Q1632K (receptor)
chain: B1 chain with S36A, S38G, G39W, V40G, H90P, W124K, Q125K
notes: See m5; HI loop mutant
B23: domain 11^AB5 Q1632L (receptor)
chain: B1 chain with S36A, S38G, G39W, V40G, H90P, W124K, Q125L
notes: See m5; HI loop mutant
B24: domain 11^AB5 S1600A (receptor)
chain: B1 chain with S36A, S38G, G39W, V40G, H90P, S93A, W124K
notes: See m5
B25: domain 11^AB5 S1600L (receptor)
chain: B1 chain with S36A, S38G, G39W, V40G, H90P, S93L, W124K
notes: See m5
B26: domain 11^AB5 S1600N (receptor)
chain: B1 chain with S36A, S38G, G39W, V40G, H90P, S93N, W124K
notes: See m5
B27: domain 11^AB5 S1600V (receptor)
chain: B1 chain with S36A, S38G, G39W, V40G, H90P, S93V, W124K
notes: See m5
B28: domain 11^AB5 S1600Y (receptor)
chain: B1 chain with S36A, S38G, G39W, V40G, H90P, S93Y, W124K
notes: See m5
B29: domain 11^AB5 S1602A (receptor)
chain: B1 chain with S36A, S38G, G39W, V40G, H90P, S95A, W124K
notes: See m5
B30: domain 11^AB5 S1602N (receptor)
chain: B1 chain with S36A, S38G, G39W, V40G, H90P, S95N, W124K
notes: See m5
B31: domain 11^AB5 T1633A (receptor)
chain: B1 chain with S36A, S38G, G39W, V40G, H90P, W124K, T126A
notes: See m5; HI loop mutant

Molecular target: T1, human IGF2^1-67 (mature insulin-like growth factor 2) (human, UniProt P01344 25-91, biotinylated (site not stated) where immobilised on the chip (Tables 1-4))
T1 construct: mature; also called mature IGF2; biotinylated IGF2
T1 sequence (P01344 25-91): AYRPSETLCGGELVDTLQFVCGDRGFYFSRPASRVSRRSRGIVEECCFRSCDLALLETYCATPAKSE
Test: SPR steady state, biotin-IGF2 on chip, pH 7.4
Protocol: (§1) Final kinetic analysis of mutants by SPR was conducted using a Biacore T200 biosensor at 25° C. in either HBS-EP (10 mM HEPES pH 7.4, 150 mM NaCl, 3 mM EDTA, and 0.005% (v/v) surfactant P20) or MES-EP (20 mM MES pH 6.5, 150 mM NaCl, 3 mM EDTA, and 0.005% (v/v) surfactant P20) at a flow-rate of 40 μL min⁻¹. […] For the analysis of the Fc-domain 11^AB5 interaction, approximately 50 RU of a biotinylated IGF2:biotinylated ubiquitin mixture (1:8 proportion) was immobilized on the CM5-streptavidin chip. This interaction was also analysed by immobilizing the Fc-domain 11^AB5 and Fc-domain 11^AB5-RHH (or Fc-domain 11^I1572A as control) by Human Antibody Capture (monoclonal mouse anti-human IgG antibody immobilised on a CM5 chip by amine coupling, GE Healthcare) with and without human IgG1 Fc fragment (Bethyl Laboratories, UK) in the control flow cell. […] T200 BiaEvaluation software (GE Healthcare) was used to fit the resulting curves according to a 1:1 binding model. Steady state affinities were determined using the kinetic data, taking the response average at 5 seconds before injection end and for 5 seconds average. Thermodynamic data was performed across the temperature range of 10° C. to 30° C., van't Hoff and Erying plots generated and ΔH, −TΔS and ΔG values determined as previously described.

Row | Binder | Kd
1 | B1 | 18.7 nM
2 | B2 | 5.33 nM
3 | B3 | 2.27 nM
4 | B4 | 1.39 nM
5 | B5 | 1.62 nM
6 | B6 | 12.4 nM
7 | B7 | 2.21 nM
8 | B8 | 7.85 nM
9 | B9 | 4.85 nM

Molecular target: T1, human IGF2^1-67 (mature insulin-like …)
Test: SPR kinetic, biotin-IGF2 on chip, pH 7.4
Protocol: as §1

Row | Binder | Kd | koff | kon
10 | B1 | 17.6 nM | 0.348 s⁻¹ | 1.97e+07 M⁻¹ s⁻¹
11 | B2 | 3.73 nM | 0.0102 s⁻¹ | 2.74e+06 M⁻¹ s⁻¹
12 | B3 | 1.34 nM | 0.0241 s⁻¹ | 2e+07 M⁻¹ s⁻¹
13 | B4 | 0.79 nM | 0.016 s⁻¹ | 2.01e+07 M⁻¹ s⁻¹
14 | B5 | 0.78 nM | 0.0171 s⁻¹ | 2.08e+07 M⁻¹ s⁻¹
15 | B6 | 9.07 nM | 0.0174 s⁻¹ | 1.9e+06 M⁻¹ s⁻¹
16 | B7 | 1.94 nM | 0.012 s⁻¹ | 9.54e+06 M⁻¹ s⁻¹
17 | B8 | 4.62 nM | 0.0096 s⁻¹ | 2.09e+06 M⁻¹ s⁻¹
18 | B9 | 3.86 nM | 0.015 s⁻¹ | 4.18e+06 M⁻¹ s⁻¹

Molecular target: T1, human IGF2^1-67 (mature insulin-like …)
Test: SPR kinetic, biotin-IGF2 on chip, pH 7.4
Remark: another data set of the same source
Excerpt: (§2) Surface plasmon resonance (SPR) binding analysis of recombinant M6P/IGF2R domain 11 mutants interaction with IGF2. Kon indicates association (on) rate; koff, dissociation (off) rate; RU, response units. Binding to IGF2 assessed with BIAcore T200 using purified biotinylated IGF2 and IGF1 on a streptavidin biosensor chip. Recombinant proteins were expressed either in E. coli and/or P. pastoris. All the mutants in the FG and CD loops are on the domain 11^AB5 background for the AB loop unless otherwise stated. All experiments were carried out at 25° C. in HBS-EP buffer (pH 7.4), were repeated 2-5 times on two independent BIAcore chips. nd=not determined. Data for KD expressed as mean of each experiment, and means of kon and koff are shown.
as §1, with “average.” for “average. Thermodynamic data was performed across the temperature range of 10° C. to 30° C., van't Hoff and Erying plots generated and ΔH, −TΔS and ΔG values determined as previously described.”

Row | Binder | Kd | koff | kon
19 | B10 | 8.69 nM | 0.0183 s⁻¹ | 2.14e+06 M⁻¹ s⁻¹
20 | B11 | 6.8 nM | 0.022 s⁻¹ | 3.26e+06 M⁻¹ s⁻¹
21 | B12 | > 200 nM |  | 
22 | B13 | > 100 nM | > 0.1 s⁻¹ | 
23 | B14 | 12.3 nM | 0.0867 s⁻¹ | 7.18e+06 M⁻¹ s⁻¹
24 | B15 | 2.94 nM | 0.0034 s⁻¹ | 1.18e+06 M⁻¹ s⁻¹
25 | B16 | 48.3 nM | 0.0397 s⁻¹ | 790000 M⁻¹ s⁻¹
26 | B17 | > 70 nM | > 0.1 s⁻¹ | 
27 | B18 | > 200 nM | > 0.2 s⁻¹ | 
28 | B19 | > 100 nM | > 0.1 s⁻¹ | 
29 | B20 | 3.76 nM | 0.0167 s⁻¹ | 4.5e+06 M⁻¹ s⁻¹
30 | B21 | 39.8 nM | 0.0202 s⁻¹ | 520000 M⁻¹ s⁻¹
31 | B22 | 11.1 nM | 0.0212 s⁻¹ | 1.96e+06 M⁻¹ s⁻¹
32 | B23 | 5.75 nM | 0.0175 s⁻¹ | 3.18e+06 M⁻¹ s⁻¹
33 | B24 | 89.1 nM | 0.213 s⁻¹ | 2.39e+06 M⁻¹ s⁻¹
34 | B25 | > 200 nM | > 0.2 s⁻¹ | 
35 | B26 | 24.4 nM | 0.091 s⁻¹ | 3.95e+06 M⁻¹ s⁻¹
36 | B27 | > 200 nM | > 0.2 s⁻¹ | 
37 | B28 | > 200 nM | > 0.2 s⁻¹ | 
38 | B29 | 16.5 nM | 0.025 s⁻¹ | 1.57e+06 M⁻¹ s⁻¹
39 | B30 | 4.75 nM | 0.0112 s⁻¹ | 2.38e+06 M⁻¹ s⁻¹
40 | B31 | 26.4 nM | 0.0196 s⁻¹ | 800000 M⁻¹ s⁻¹

Molecular target: T1, human IGF2^1-67 (mature insulin-like …)
Test: SPR steady state, biotin-IGF2 on chip, pH 7.4
Remark: another data set of the same source
Excerpt: as §2
as §1, with “average.” for “average. Thermodynamic data was performed across the temperature range of 10° C. to 30° C., van't Hoff and Erying plots generated and ΔH, −TΔS and ΔG values determined as previously described.”

Row | Binder | Kd
41 | B10 | 12.1 nM
42 | B11 | 8.51 nM
43 | B12 | > 200 nM
44 | B13 | > 100 nM
45 | B14 | 13.5 nM
46 | B15 | 12.2 nM
47 | B16 | 60 nM
48 | B17 | > 70 nM
49 | B18 | > 200 nM
50 | B19 | > 100 nM
51 | B20 | 4.84 nM
52 | B21 | 52.4 nM
53 | B22 | 12.8 nM
54 | B23 | 9.34 nM
55 | B24 | 84.7 nM
56 | B25 | > 200 nM
57 | B26 | 29.7 nM
58 | B27 | > 200 nM
59 | B28 | > 200 nM
60 | B29 | 19.9 nM
61 | B30 | 7.93 nM
62 | B31 | 53.5 nM
